Results published in patent US20100015126A1 (published 2010).

B1: recombinant human HSP60 with N-terminal His-tag (other, UniProt P10809 27-573, looked up, not shown: small tags and cut ends)
chain: AKDVKFGADARALMLQGVDLLADAVAVTMGPKGRTVIIEQSWGSPKVTKDGVTVAKSIDLKDKYKNIGAKLVQDVANNTNEEAGDGTTTATVLARSIAKEGFEKISKGANPVEIRRGVMLAVDAVIAELKKQSKPVTTPEEIAQVATISANGDKEIGNIISDAMKKVGRKGVITVKDGKTLNDELEIIEGMKFDRGYISPYFINTSKGQKCEFQDAYVLLSEKKISSIQSIVPALEIANAHRKPLVIIAEDVDGEALSTLVLNRLKVGLQVVAVKAPGFGDNRKNQLKDMAIATGGAVFGEEGLTLNLEDVQPHDLGKVGEVIVTKDDAMLLKGKGDKAQIEKRIQEIIEQLDVTTSEYEKEKLNERLAKLSDGVAVLKVGGTSDVEVNEKKDRVTDALNATRAAVEEGIVLGGGCALLRCIPALDSLTPANEDQKIGIEIIKRTLKIPAMTIAKNAGVEGSLIVEKIMQSSSEVGYDAMAGDFVNMVEKGIIDPTKVVRTALLDAAGVASLLTTAEVVVTEIPKEEKDPGMGAMGGMGGGMGGGMF
notes: mature; also called His-HSP60
B2: heat-denatured chicken ovalbumin (dOVA standard) (other, UniProt P01012 2-386, looked up)
chain: GSIGAASMEFCFDVFKELKVHHANENIFYCPIAIMSALAMVYLGAKDSTRTQINKVVRFDKLPGFGDSIEAQCGTSVNVHSSLRDILNQITKPNDVYSFSLASRLYAEERYPILPEYLQCVKELYRGGLEPINFQTAADQARELINSWVESQTNGIIRNVLQPSSVDSQTAMVLVNAIVFKGLWEKAFKDEDTQAMPFRVTEQESKPVQMMYQIGLFRVASMASEKMKILELPFASGTMSMLVLLPDEVSGLEQLESIINFEKLTEWTSSNVMEERKIKVYLPRMKMEEKYNLTSVLMAMGITDVFSSSANLSGISSAESLKISQAVHAAHAEINEAGREVVGSAEAGVDAASVSEEFRADHPFLFCIKHIATNAVLFFGRCVSP
notes: also called dOVA std; misfolded hen ovalbumin

Legend:
[1] = target: T1, fibrin (immobilized, formed from fibrinogen with factor IIa) (UniProt P02671 36-629; P02675 45-491; P02679 27-437); assay: direct ELISA, fibrin formed in wells, anti-His-tag detection
T1 sequence (looked up) 1: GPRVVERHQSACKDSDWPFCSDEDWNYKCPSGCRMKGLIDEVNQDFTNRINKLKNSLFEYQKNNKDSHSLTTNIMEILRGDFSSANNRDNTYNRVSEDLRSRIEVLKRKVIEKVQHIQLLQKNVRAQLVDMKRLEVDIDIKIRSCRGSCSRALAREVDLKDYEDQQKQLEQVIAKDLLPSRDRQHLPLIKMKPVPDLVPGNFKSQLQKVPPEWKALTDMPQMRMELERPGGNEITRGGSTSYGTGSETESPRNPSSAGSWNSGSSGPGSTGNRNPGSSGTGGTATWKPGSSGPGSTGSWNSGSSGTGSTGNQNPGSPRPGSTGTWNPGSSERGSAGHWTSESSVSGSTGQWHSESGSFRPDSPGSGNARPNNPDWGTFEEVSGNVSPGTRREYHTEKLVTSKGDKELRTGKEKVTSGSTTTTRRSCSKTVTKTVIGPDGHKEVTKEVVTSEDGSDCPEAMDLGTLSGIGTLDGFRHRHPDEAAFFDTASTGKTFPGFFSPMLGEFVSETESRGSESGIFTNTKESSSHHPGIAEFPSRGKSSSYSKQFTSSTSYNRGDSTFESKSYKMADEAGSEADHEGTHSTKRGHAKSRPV
T1 sequence (looked up) 2: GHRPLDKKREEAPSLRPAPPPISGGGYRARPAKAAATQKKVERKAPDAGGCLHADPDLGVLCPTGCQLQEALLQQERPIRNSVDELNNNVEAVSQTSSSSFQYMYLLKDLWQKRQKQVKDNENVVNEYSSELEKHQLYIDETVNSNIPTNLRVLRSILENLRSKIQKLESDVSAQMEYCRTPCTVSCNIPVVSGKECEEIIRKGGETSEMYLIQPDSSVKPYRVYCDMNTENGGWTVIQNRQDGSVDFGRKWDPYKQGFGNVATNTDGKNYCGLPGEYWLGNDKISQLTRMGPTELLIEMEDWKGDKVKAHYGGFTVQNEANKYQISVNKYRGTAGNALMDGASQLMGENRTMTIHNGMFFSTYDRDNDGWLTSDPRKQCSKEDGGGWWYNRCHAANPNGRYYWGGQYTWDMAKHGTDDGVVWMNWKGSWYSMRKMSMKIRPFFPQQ
T1 sequence (looked up) 3: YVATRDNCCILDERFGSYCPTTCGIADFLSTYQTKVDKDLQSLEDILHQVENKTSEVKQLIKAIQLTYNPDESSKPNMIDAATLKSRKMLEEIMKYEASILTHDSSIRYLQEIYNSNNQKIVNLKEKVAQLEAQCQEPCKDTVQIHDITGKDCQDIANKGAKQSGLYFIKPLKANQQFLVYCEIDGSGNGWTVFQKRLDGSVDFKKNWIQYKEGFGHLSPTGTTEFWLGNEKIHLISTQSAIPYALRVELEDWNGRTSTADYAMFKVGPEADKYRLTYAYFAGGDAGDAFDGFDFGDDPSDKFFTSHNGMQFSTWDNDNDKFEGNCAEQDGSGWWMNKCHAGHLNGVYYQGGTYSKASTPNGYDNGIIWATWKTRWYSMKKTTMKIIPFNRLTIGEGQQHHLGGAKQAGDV

[2] = target: T2, synthetic human amyloid-β(1-42) peptide (Aβ42t=0) (human); assay: direct ELISA, coated ligand, anti-His-tag detection
T2 construct: also called Aβ1-42

[3] = target: T3, oxidized human plasma low density lipoprotein (oxLDL) with misfolded apolipoprotein B100 (human, UniProt P04114 28-4563); assay: direct ELISA, coated ligand, HSP60 concentration series
T3 construct: also called oxidized LDL

[4] = target: recombinant human HSP90beta (human, UniProt P08238 1-724); assay: direct ELISA, coated ligand, HSP90 concentration series
recombinant human HSP90beta, sequence (P08238 whole entry): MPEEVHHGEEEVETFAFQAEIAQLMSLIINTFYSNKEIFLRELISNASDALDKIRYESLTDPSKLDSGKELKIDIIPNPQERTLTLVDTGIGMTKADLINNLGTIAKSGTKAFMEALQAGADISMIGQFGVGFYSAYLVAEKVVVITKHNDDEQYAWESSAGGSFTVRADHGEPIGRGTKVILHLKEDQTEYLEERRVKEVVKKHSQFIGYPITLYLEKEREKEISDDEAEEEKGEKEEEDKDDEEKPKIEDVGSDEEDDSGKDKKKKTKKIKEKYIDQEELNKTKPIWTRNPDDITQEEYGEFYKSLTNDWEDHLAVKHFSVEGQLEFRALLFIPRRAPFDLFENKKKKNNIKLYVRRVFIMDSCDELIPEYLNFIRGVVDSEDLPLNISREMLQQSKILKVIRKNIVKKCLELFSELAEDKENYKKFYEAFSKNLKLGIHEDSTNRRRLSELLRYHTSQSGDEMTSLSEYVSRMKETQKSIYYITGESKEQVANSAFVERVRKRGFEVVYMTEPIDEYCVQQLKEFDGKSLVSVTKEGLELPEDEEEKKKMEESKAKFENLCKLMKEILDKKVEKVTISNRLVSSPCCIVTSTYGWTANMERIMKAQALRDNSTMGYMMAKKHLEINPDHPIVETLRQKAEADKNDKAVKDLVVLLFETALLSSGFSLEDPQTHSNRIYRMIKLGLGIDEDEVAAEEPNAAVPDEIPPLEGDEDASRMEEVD

T2 sequence (peptide, as listed by the source limits assumed): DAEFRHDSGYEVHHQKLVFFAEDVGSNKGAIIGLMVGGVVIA

| Binder | binding result [1] | binding result [2] | binding result [3] | binding result [4] |
| --- | --- | --- | --- | --- |
| B1 | binds | binds | no binding | – |
| B2 | – | – | – | no binding |
